The text below walks through data of publication PMC3280236.

The target of this assay is Stat1, unphosphorylated, endogenous in 293 T cells (human (endogenous in 293 T)) (UniProt P42224).
Sequence of UniProt P42224 (P42224 whole entry): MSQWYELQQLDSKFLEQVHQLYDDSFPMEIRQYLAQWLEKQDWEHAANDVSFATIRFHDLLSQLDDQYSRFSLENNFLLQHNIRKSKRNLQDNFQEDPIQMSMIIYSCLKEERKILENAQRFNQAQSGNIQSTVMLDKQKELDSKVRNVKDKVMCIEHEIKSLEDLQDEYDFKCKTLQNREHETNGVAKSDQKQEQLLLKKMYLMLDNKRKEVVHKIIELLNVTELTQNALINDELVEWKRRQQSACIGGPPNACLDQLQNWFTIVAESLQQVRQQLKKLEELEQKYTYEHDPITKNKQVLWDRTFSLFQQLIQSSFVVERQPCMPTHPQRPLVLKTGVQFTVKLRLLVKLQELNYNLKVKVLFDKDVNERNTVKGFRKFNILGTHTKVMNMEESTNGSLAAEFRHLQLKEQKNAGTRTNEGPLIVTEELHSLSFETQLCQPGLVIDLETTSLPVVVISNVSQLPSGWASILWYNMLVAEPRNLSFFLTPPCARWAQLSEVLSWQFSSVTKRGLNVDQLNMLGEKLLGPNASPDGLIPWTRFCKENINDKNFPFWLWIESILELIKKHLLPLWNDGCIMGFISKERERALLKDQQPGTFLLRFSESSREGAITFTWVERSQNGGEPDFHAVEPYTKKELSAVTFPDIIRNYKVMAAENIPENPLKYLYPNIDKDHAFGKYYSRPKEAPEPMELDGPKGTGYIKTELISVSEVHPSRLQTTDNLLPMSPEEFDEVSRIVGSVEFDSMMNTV

In turn, “myc-tagged HPIV1 C′ protein with the F170S substitution (C′^F170S-myc) (natural protein)” displayed a percent of F170S HPIV1-infected Vero cells positive for nuclear Stat1 after IFN-β (1,000 IU/mL, 60 min), confocal microscopy (untagged C proteins made by the virus; Stat1 of Vero cells) of 82%. The substance “myc-tagged HPIV1 C′ protein, wild type (C′^WT-myc) (natural protein)” returned a percent of WT HPIV1-infected Vero cells positive for nuclear Stat1 after IFN-β (1,000 IU/mL, 60 min), confocal microscopy (untagged C proteins made by the virus; Stat1 of Vero cells) of 2%.
